Experimental data reported in paper PMC7506556, “Structure and function of bacteriophage CBA120 ORF211 (TSP2), the determinant of phage specificity towards E. coli O157:H7” (Scientific Reports, 2020).
Where a chain is given by its changes, count along the chain named. In names and notes the source's numbering stands.

B1: bacteriophage CBA120 ORF211 (TSP2), wild type (enzyme, UniProt G3M190 1-921, looked up)
chain: MTRNVEELFGGVITAPHQIPFTYKSNVGGETFLSLPFYPVTGVVTINGGMQVPLDNFEIEGNTLNLGRALSKGDVVYCLFDKILSPEDTAKGIRIYKFQAVGGETEFTPDFTSYGVQSLYIGGEYKTPEIEYSYDSTTGKVSLQTALSAGVWVVAEMSVKQPNISPAFDRSIQEIARSANVKDSEVIVSTDTISLLDGKKVVYDIATQTSYGLPTIPDGSVISSVSAGKLNYNPGDVQVDLLPLEDSFINVINTLGRNDGAKYIGECHSVADLRNTEPTMDGQRIILKQHTAGTLLGGGVFRALIDGTGKTDNNGTVIKTVGGAAWLRVNADRVNPFMFGALGGSNDDTIPVQSCVDSGKATQLTDAHYVSNIQLKYNTSSIYGSGLHYSRLHQLPSATGNCITIKDTCSLIVLDAFGVYGTGAQQGTSFTAGTTGIYVETPSGLSADYPFHTTADPRRDLCISKVHIAGFDEYGLNIDSGNFSVTTDSLLVNHINQVGVRCATTDWTWTNIQVNTCGKQCLVLDGCGNGRIIGGKFIWANWQPYGTVGQFPGITINNSQNMVINGIEVQDCGGNGIEISESYSISMNGLNTNRNGINANNTFYNIVFNKSDAVINGFVGLNYAANSGSGANSSAGNFQFLSNDCSVTINGVVETGYMGINFIGDNNIINPTNSDLSINGLVNYSKTGLQTMNETPTFDGVSTTPVYVSVPSSVGQVNGLRLSQANKDKLLYSRTAGPEGITMAAVIVPTISGAEVFNFMAIGSGFSDTSNSLHLQLVIDASGKQTIALLLGGDGTTQILSGDLPNDLKLQSGVPYHIAIGAKPGYFWWSILNIQTGKRIRRSFRGAYLAVPFNSIFGLTSSLTFFSDSNAGGDACSGVGAKVYVGMFSSENDYVASRYYNLINPVDPTKLISYRILDSSI
notes: 921-residue polypeptide chain; gene codon optimized for E. coli; residues 1-168 have no electron density in the crystal; Calculated monomer mass 99,054 Da with the 6X-His tag; also called tailspike protein 2; wild-type TSP2; source: E. coli Rosetta-gami 2 (pBAD24), purified (Ni-NTA); not shown: 6X-His, C-terminal, kept
B2: TSP2 D506N:D571N:Y623A mutant (enzyme, UniProt G3M190 1-921, looked up)
chain: B1 chain with D506N, D571N, Y623A
notes: Made by Q5 site-directed mutagenesis of the TSP2 plasmid; source: E. coli BL21(DE3), purified similar to wild type TSPs
B3: D506N:D571A TSP2 (enzyme, UniProt G3M190 1-921, looked up)
chain: B1 chain with D506N, D571A
notes: as for B2
B4: D506N:D571N TSP2 (enzyme, UniProt G3M190 1-921, looked up)
chain: B1 chain with D506N, D571N
notes: Made by Q5 site-directed mutagenesis of the TSP2 plasmid; also called TSP2 D506N:D571N double mutant; TSP2 asparagine double mutant; source: E. coli BL21(DE3), purified similar to wild type TSPs
B5: D506N:E568A:D571N TSP2 (enzyme, UniProt G3M190 1-921, looked up)
chain: B1 chain with D506N, E568A, D571N
notes: as for B2
B6: D506N:E568Q:D571N TSP2 (enzyme, UniProt G3M190 1-921, looked up)
chain: B1 chain with D506N, E568Q, D571N
notes: as for B2
B7: D506A:D571A TSP2 (enzyme, UniProt G3M190 1-921, looked up)
chain: B1 chain with D506A, D571A
notes: Made by Q5 site-directed mutagenesis of the TSP2 plasmid; also called TSP2 D506A:D571A double mutant; source: E. coli BL21(DE3), purified similar to wild type TSPs
B8: D506A:D571N TSP2 (enzyme, UniProt G3M190 1-921, looked up)
chain: B1 chain with D506A, D571N
notes: as for B2
B9: E456A:E483A TSP1 (enzyme)
chain: MNEMFSQGGKGSTGILTNKQAVARHFGVKQSEVVYFSVGVDLGGYKVIYDKETQRAYSLPVGIASGTTAVSLSTAAVLVHSAGSVDLGSLAVSREEYVTLPGSFDSGSTLNVKNELLTYTDGKYRWDGILPKTVAPGSTPASTGGVGLGAWISVGDASLRTQLANGDGSLIGIHPQGTLNNVLTVRTPEQYNAVGDGIADDTSKLKEMLSDINNVPETLPDAAAVNSYMEQVAVKIDLTKLYRFTETLYIPPGVSIEIPTSNFFTRECKQGLFYDPVDKNTAAISLMVYRKQPDGSYKLNKDVDYYPTGLDIDNGDAITCARKIDINNLNLITAPGVKVGVKWIGGAGCTTKGLSIGENTGSDITTARLPRVGLLQSASWGSIHENLRILYKTQGAVFIDSNGGAAVNNAYISRLGNTNGELEQAVYKPAGFTEVGDVAVTQFAGSEVKFNSPIIAQASFDFVHAGRDTDSYGLFMVDKPHIASSGGKKKHSFYLINTSSNVTLSGVGLSGQDPDLDSMYFLKNCPETARNVVRGQMPISGVKLVRGTGNYPTLVLDCTNMGSQFQFGEVGDIFYIKDVVGVKADTLYIDPVNGNNYNWGTNGTKPIRELTNIAKICQLFRCKSVYLNAGESVITSNTELPMVVFEGPGSLKANSGSSFLIKAGGTLSLIGLSGISTDGGHMFRVSTVEKVNIHTNCSVNAGAAYVVLSEVQGNIEYRQLFYSVNCSKYIGATAGQTIAGIMVKTATRPTGIDAAPVDGNVSLTYKIIES
notes: source: E. coli BL21(DE3), purified similar to wild type TSPs
B10: E456Q:E483Q TSP1 (enzyme)
chain: B9 chain with A456Q, A483Q
notes: as for B9
B11: D313N:E456Q:E483Q TSP1 (enzyme)
chain: B9 chain with D313N, A456Q, A483Q
notes: as for B9

Tests used:
[1] = target: the molecule itself; assay: crystal structure; sitting drops, vapor diffusion, room temperature, 0.8 M ammonium sulfate, 0.1 M HEPES pH 7.0; 1.9 Å; two homotrimers in the asymmetric unit
[2] = target: the molecule itself; assay: not stated; purified TSP2 site-directed mutants; how the trimeric state was shown is not told
[3] = target: the molecule itself; assay: not stated; purified TSP1 site-directed mutants; how the trimeric state was shown is not told

| Protein | stoichiometry N [2] | also measured |
| --- | --- | --- |
| B1 | – | stoichiometry N [1]: 3 |
| B2 | 3 | – |
| B3 | 3 | – |
| B4 | 3 | – |
| B5 | 3 | – |
| B6 | 3 | – |
| B7 | 3 | – |
| B8 | 3 | – |
| B9 | – | stoichiometry N [3]: 3 |
| B10 | – | stoichiometry N [3]: 3 |
| B11 | – | stoichiometry N [3]: 3 |
